One assay relates to PTH1R–Gq peptide. Briefly: PTH1R-luciferase complementation reporter assay, Gq peptide. It is filed as biochemical, human. The note with it: PTH1R construct named by the receptor or protein whose sequence replaces ICL3 (WT = wild-type); Y axis of Figure 5G. The procedure:
For PTH1R luciferase complementation reporter assays, cells were seeded the day prior to transfection at 25-30% confluence on 12-well plates. For each transfection, 0.5 μg DNA, 1.5 μl X-tremeGENE HP, and 100 μl Opti-MEM were combined, incubated for 15-20 min, and added to seeded wells. For each mutant, PTH1R-Gs peptide, PTH1R-Gq peptide and PTH1R-(no peptide) constructs were transfected in parallel. Spep and Qpep constructs were transfected 24 h prior to collection, and no-peptide constructs were transfected 18 h before collection. […] Media in each well was used to gently shear and resuspend the cells by pipetting. The cell mixture was centrifuged (3 min, 300g) and the media was aspirated. Cell pellet was resuspended in 1 ml PBS and centrifuged again as above. […] Cellular debris was removed by centrifugation (1,000g for 1 min). To collect additional vesicles, debris was resuspended in 0.3 ml PBS, briefly vortexed, and centrifuged again (1,000g for 1 min). The ~0.9 ml of combined decanted supernatant was centrifuged one additional time (1,000g for 2 min) to better remove cellular debris. […] Vesicle samples were collected in a 96-well clear bottom plate and assayed for TagRFP fluorescence (Tecan Spark, excitation 521 nm, emission 585 nm, gain 150). For each set of constructs for a given […] ([…] control), samples were diluted to the lowest TagRFP counts. […] The plate was tapped 2-3 times to mix, and the kinetic read was resumed. Moving averages were computed for each kinetic trace (3-point averages for 5 min equilibration, 8-point moving averages post-drug treatment). Each kinetic trace was normalized to the last point of the pre-drug equilibration. The maximum luminescence value that appeared stable over time was used for further analysis. Specific Spep and Qpep signals were calculated by subtracting the control value from the Spep value and the Qpep value for a given experiment.
In general terms: A reporter such as luciferase makes a cellular process visible.

The next assay has as its system PTH1R–Gs peptide. Briefly: PTH1R-luciferase complementation reporter assay, Gs peptide. The format is biochemical, human. The following applies: PTH1R construct named by the receptor or protein whose sequence replaces ICL3 (WT = wild-type); X axis of Figure 5G.
Assay [1] deals with β2AR–Gs peptide FRET sensor. Briefly: ∆FRET assay, β2AR–Gs peptide SPASM FRET sensor.
For assay [2], the target named is β2AR ICL3 FRET sensor, β2AR(L258Azi/Y350Azi/∆351–413) (Homo sapiens, UniProt P07550, L258F/Y350F). The assay can be described thus: Time-correlated single photon counting FRET assay, β2AR ICL3 FRET sensor (AZDye488/AZDye546). The following applies: in combination with isoproterenol.
Experimental: Cell membranes were prepared following the procedure in ‘Crude cell membrane extracts’ through the first ultracentrifugation step (135,000g, 25 min, 4 °C). […] Solution was homogenized, first by passing through a 1 ml micropipette 10 times, then passing through a 20-gauge needle 10 times. To initiate the reaction, sodium ascorbate (50 mM) was added to the mixture and mixed by pipetting (2 ml final volume). Reactions were incubated with mild shaking (500 rpm) for 30 min at 25 °C.
For conditions without drug, peptide or nanobody, an equivalent volume of assay buffer was added. Reactions were equilibrated for 5 min prior to reading. […] Time-resolved fluorescence decay data were fit to the equation: Decay=α1e^−t/τ^1+α2e^−t/τ^2+α3e^−t/τ^3
Amplitude-weighted average lifetimes (τavg) were calculated from the three-exponential decay equation: τavg=(α1τ1+α2τ2+α3τ3)/(α1+α2+α3)
Each condition was performed in technical duplicate or triplicate, depending on sensor yield.

The values below come from publication PMC10033409, “Autoregulation of GPCR signalling through the third intracellular loop” (Nature, 2023).

Experimental for PTH1R–Gs peptide: For PTH1R luciferase complementation reporter assays, cells were seeded the day prior to transfection at 25–30% confluence on 12-well plates. For each transfection, 0.5 µg DNA, 1.5 µl X-tremeGENE HP, and 100 µl Opti-MEM were combined, incubated for 15–20 min, and added to seeded wells. […] Spep and Qpep constructs were transfected 24 h prior to collection, and no-peptide constructs were transfected 18 h before collection.
Expressed PTH1R-luciferase complementation constructs were vesiculated as previously described, with modifications for smaller sample volume[25]. Media in each well was used to gently shear and resuspend the cells by pipetting. The cell mixture was centrifuged (3 min, 300g) and the media was aspirated. Cell pellet was resuspended in 1 ml PBS and centrifuged again as above. Cells were resuspended again in 0.6 ml vesiculation buffer (10 mM HEPES pH 7.4, 150 mM NaCl, 20 mM CaCl2, 2 µg ml^−1 aprotinin, 2 µg ml^−1 leupeptin, 2 mM N-ethylmaleimide) and incubated at 30 °C with shaking at 180 rpm for 2 h. Cellular debris was removed by centrifugation (1,000g for 1 min). To collect additional vesicles, debris was resuspended in 0.3 ml PBS, briefly vortexed, and centrifuged again (1,000g for 1 min). The ~0.9 ml of combined decanted supernatant was centrifuged one additional time (1,000g for 2 min) to better remove cellular debris. Vesicles were collected by centrifugation (3,200g for 40 min at 4 °C) and washed in 0.5 ml assay buffer. Centrifugation step was repeated, and vesicles were resuspended in 0.1 ml assay buffer.
45 µl of each sample was transferred to an opaque 96-well flat bottom plate. 45 µl of Nano-Glo Substrate (Promega N1110) diluted 1:50 in assay buffer was added to each well in the new plate. After tapping the plate to collect liquid at the bottom of the well, a kinetic luminescence read was started (500 ms integration, continuous for 40 min) and luminescence signal was tracked. […] The plate was tapped 2–3 times to mix, and the kinetic read was resumed. Moving averages were computed for each kinetic trace (3-point averages for 5 min equilibration, 8-point moving averages post-drug treatment). Each kinetic trace was normalized to the last point of the pre-drug equilibration. The maximum luminescence value that appeared stable over time was used for further analysis. Specific Spep and Qpep signals were calculated by subtracting the control value from the Spep value and the Qpep value for a given experiment.

B1: ADA1A (protein, UniProt P35348 1-466, looked up)
Alpha-1A adrenergic receptor: MVFLSGNASDSSNCTQPPAPVNISKAILLGVILGGLILFGVLGNILVILSVACHRHLHSVTHYYIVNLAVADLLLTSTVLPFSAIFEVLGYWAFGRVFCNIWAAVDVLCCTASIMGLCIISIDRYIGVSYPLRYPTIVTQRRGLMALLCVWALSLVISIGPLFGWRQPAPEDETICQINEEPGYVLFSALGSFYLPLAIILVMYCRVYVVAKRESRGLKSGLKTDKSDSEQVTLRIHRKNAPAGGSGMASAKTKTHFSVRLLKFSREKKAAKTLGIVVGCFVLCWLPFFLVMPIGSFFPDFKPSETVFKIVFWLGYLNSCINPIIYPCSSQEFKKAFQNVLRIQCLCRKQSSKHALGYTLHPPSQAVEGQHKDMVRIPVGSRETFYRISKTDGVCEWKFFSSMPRGSARITVSKDQSSCTTARVRSKSFLQVCCCVGPSTPSLDKNHQVPTIKVHTISLSENGEEV
As for B1, the “Specific Peptide Signal, Gq (Average)” value with PTH1R–Gq peptide worked out at 0.14. For the same molecule, the “Specific Peptide Signal, Gs (Average)” value in the assay on PTH1R–Gs peptide is listed as 0.59.

B2: Nb6B9: nanobody that binds the receptor’s cytosolic cavity in the active state (antibody, V domains shown)
VH: QVQLQESGGGLVQAGGSLRLSCAASGSIFALNIMGWYRQAPGKQRELVAAIHSGGTTNYANSVKGRFTISRDNAANTVYLQMNSLKPEDTAVYYCNVKDFGAIIYDYDYWGQGTQVTVSS
With B2, the “effect on agonist-induced FRET of β2AR–G peptide sensor” value in assay [1] (wild-type β2AR–Gs peptide FRET sensor) was “significantly quenched FRET”; in assay [1] (β2AR(∆ICL3), Gs and Gq peptide sensors), “quenched the interactions of both the Gs and Gq peptides with the receptor”. Further, in assay [2], the “effect on FRET efficiency of the ICL3 FRET sensor treated with isoproterenol” value is recorded as “quenched”.

B3: CCK2 (protein, UniProt P32239 1-447, looked up)
Gastrin/cholecystokinin type …: MELLKLNRSVQGTGPGPGASLCRPGAPLLNSSSVGNLSCEPPRIRGAGTRELELAIRITLYAVIFLMSVGGNMLIIVVLGLSRRLRTVTNAFLLSLAVSDLLLAVACMPFTLLPNLMGTFIFGTVICKAVSYLMGVSVSVSTLSLVAIALERYSAICRPLQARVWQTRSHAARVIVATWLLSGLLMVPYPVYTVVQPVGPRVLQCVHRWPSARVRQTWSVLLLLLLFFIPGVVMAVAYGLISRELYLGLRFDGDSDSDSQSRVRNQGGLPGAVHQNGRCRPETGAVGEDSDGCYVQLPRSRPALELTALTAPGPGSGSRPTQAKLLAKKRVVRMLLVIVVLFFLCWLPVYSANTWRAFDGPGAHRALSGAPISFIHLLSYASACVNPLVYCFMHRRFRQACLETCARCCPRPPRARPRALPDEDPPTPSIASLSRLSYTTISTLGPG
In the case of B3, in the assay with PTH1R–Gq peptide, the “Specific Peptide Signal, Gq (Average)” value turned out to be 0.12. The “Specific Peptide Signal, Gs (Average)” value with PTH1R–Gs peptide is on record as 0.42.

B4: 5HT2C (protein, UniProt P28335 33-458, looked up)
5-hydroxytryptamine receptor …: IVTDIFNTSDGGRFKFPDGVQNWPALSIVIIIIMTIGGNILVIMAVSMEKKLHNATNYFLMSLAIADMLVGLLVMPLSLLAILYDYVWPLPRYLCPVWISLDVLFSTASIMHLCAISLDRYVAIRNPIEHSRFNSRTKAIMKIAIVWAISIGVSVPIPVIGLRDEEKVFVNNTTCVLNDPNFVLIGSFVAFFIPLTIMVITYCLTIYVLRRQALMLLHGHTEEPPGLSLDFLKCCKRNTAEEENSANPNQDQNARRRKKKERRPRGTMQAINNERKASKVLGIVFFVFLIMWCPFFITNILSVLCEKSCNQKLMEKLLNVFVWIGYVCSGINPLVYTLFNKIYRRAFSNYLRCNYKVEKKPPVRQIPRVAATALSGRELNVNIYRHTNEPVIEKASDNEPGIEMQVENLELPVNPSSVVSERISSV
With B4, the “Specific Peptide Signal, Gq (Average)” value with PTH1R–Gq peptide is listed as -0.00493. In addition, in the assay with PTH1R–Gs peptide, the “Specific Peptide Signal, Gs (Average)” value was 0.48.

B5: CNR1 (protein, UniProt P21554 1-472, looked up)
Cannabinoid receptor 1: MKSILDGLADTTFRTITTDLLYVGSNDIQYEDIKGDMASKLGYFPQKFPLTSFRGSPFQEKMTAGDNPQLVPADQVNITEFYNKSLSSFKENEENIQCGENFMDIECFMVLNPSQQLAIAVLSLTLGTFTVLENLLVLCVILHSRSLRCRPSYHFIGSLAVADLLGSVIFVYSFIDFHVFHRKDSRNVFLFKLGGVTASFTASVGSLFLTAIDRYISIHRPLAYKRIVTRPKAVVAFCLMWTIAIVIAVLPLLGWNCEKLQSVCSDIFPHIDETYLMFWIGVTSVLLLFIVYAYMYILWKAHSHAVRMIQRGTQKSIIIHTSEDGKVQVTRPDQARMDIRLAKTLVLILVVLIICWGPLLAIMVYDVFGKMNKLIKTVFAFCSMLCLLNSTVNPIIYALRSKDLRHAFRSMFPSCEGTAQPLDNSMGDSDCLHKHANNAASVHRAAESCIKSTVKIAKVTMSVSTDTSAEAL
With B5, the “Specific Peptide Signal, Gq (Average)” value in the assay with PTH1R–Gq peptide is listed as 0.10. Further, in the assay with PTH1R–Gs peptide, the “Specific Peptide Signal, Gs (Average)” value is listed as 0.53.

B6: DRD3 (protein, UniProt P35462 1-400, looked up)
D(3) dopamine receptor: MASLSQLSGHLNYTCGAENSTGASQARPHAYYALSYCALILAIVFGNGLVCMAVLKERALQTTTNYLVVSLAVADLLVATLVMPWVVYLEVTGGVWNFSRICCDVFVTLDVMMCTASILNLCAISIDRYTAVVMPVHYQHGTGQSSCRRVALMITAVWVLAFAVSCPLLFGFNTTGDPTVCSISNPDFVIYSSVVSFYLPFGVTVLVYARIYVVLKQRRRKRILTRQNSQCNSVRPGFPQQTLSPDPAHLELKRYYSICQDTALGGPGFQERGGELKREEKTRNSLSPTIAPKLSLEVRKLSNGRLSTSLKLGPLQPRGVPLREKKATQMVAIVLGAFIVCWLPFFLTHVLNTHCQTCHVSPELYSATTWLGYVNSALNPVIYTTFNIEFRKAFLKILSC
Consider B6, for which, in the assay with PTH1R–Gq peptide, the “Specific Peptide Signal, Gq (Average)” value is 0.08. For the same molecule, in the assay with PTH1R–Gs peptide, the “Specific Peptide Signal, Gs (Average)” value is 0.72.
